Source: patent US20130295090A1

B1: humanized MAb B2 (antibody)
VH: EVQLLEQSGSEVKKPGASVKVSCKASGYPFTDYAMSWVRQAPGQGLEYMGWIFTNSGNPTYAPGFAGRFVFSLDISVNTAYLHIDSLKPEDTAVYYCARGIVTPAASGDYFDSWGQGTLVTVSSASTKGPSVFPLAPSSKSTSGGTAALGCLVKDYFPEPVTVSWNSGALTSGVHTFPAVLQSSGLYSLSSVVTVPSSSLGTQTYICNVDHKPSNTKVDKKVEPKSCDKTHTCPPCPAPPVEGGPSVFLFPPKPKDTLMISRTPEVTCVVVDVSHEDPEVKFNWYVDGVEVHNAKTKPREEQYNSTYRVVSVLTVLHQDWLNGKEYKCKVSNKALPAPIEKTISKAKGQPREPQVYTLPPSRDELTKNQVSLTCLVKGFYPSDIAVEWESNGQPENNYKTTPPVLDSDGSFFLYSKLTVDKSRWQQGNVFSCSVMHEALHNHYTQKSLSLSPGK
VL: ELVLTQSPSSLSASIGDRVTITCRASQHISSWLAWYQQKPGKAPKPLIYAASSLKSGVPSRFSGSGSGTDFTLTISGLQPEDFATYYCQQYENSPVTFGGGTKVEIKRTVAAPSVFIFPPSDEQLKSGTASVVCLLNNFYPREAKVQWKVDNALQSGNSQESVTEQDSKDNTYSLSSTLTLSKADYEKHKVYACEVTHQGLSSPVTKSFN
B2: humanized MAb A3 (antibody)
VH: EVQLLESGAEVKKPGSSVRISCKVSGTPYSSYVMNWVRQAPGQGLEWMGVFVPSLDRALYAQNFQGRLSITADTTTTYMELTSLKFEDTAVYYCATDFSVGWLRPLDRWGQGTLVTVSSASTKGPSVFPLAPSSKSTSGGTAALGCLVKDYFPEPVTVSWNSGALTSGVHTFPAVLQSSGLYSLSSVVTVPSSSLGTQTYICNVDHKPSNTKVDKKVEPKSCDKTHTCPPCPAPPVEGGPSVFLFPPKPKDTLMISRTPEVTCVVVDVSHEDPEVKFNWYVDGVEVHNAKTKPREEQYNSTYRVVSVLTVLHQDWLNGKEYKCKVSNKALPAPIEKTISKAKGQPREPQVYTLPPSRDELTKNQVSLTCLVKGFYPSDIAVEWESNGQPENNYKTTPPVLDSDGSFFLYSKLTVDKSRWQQGNVFSCSVMHEALHNHYTQKSLSLSPGK
VL: not shown

Target: JEV strain SA14-14-2 envelope (E) protein on virions (Japanese encephalitis virus strain SA14-14-2), P0DOH7
Experiment: ELISA on JEV virions captured with HMAF, half-maximal binding, MAb
Details: remark: other sources report otherwise

| Binder | Kd |
| --- | --- |
| B1 | 0.08 nM |
| B2 | 0.15 nM |
